By stoichiometry N is commonly meant a count of units in the complex or per binding partner.

Test in all cases: native MS
In data set [1] the target is human soluble guanylate cyclase α subunit catalytic domain, αGC(466–690) (human) (UniProt Q02108).
In data set [2] the target is human soluble guanylate cyclase β subunit catalytic domain, wild type, βGC(407–626) (UniProt Q02153).
Data set [3] deals with human soluble guanylate cyclase α subunit catalytic domain, truncated αGC(466–662) (human) (UniProt Q02108).

UniProt Q02153, sequence (Q02153 whole entry, looked up, the tested form may be a part): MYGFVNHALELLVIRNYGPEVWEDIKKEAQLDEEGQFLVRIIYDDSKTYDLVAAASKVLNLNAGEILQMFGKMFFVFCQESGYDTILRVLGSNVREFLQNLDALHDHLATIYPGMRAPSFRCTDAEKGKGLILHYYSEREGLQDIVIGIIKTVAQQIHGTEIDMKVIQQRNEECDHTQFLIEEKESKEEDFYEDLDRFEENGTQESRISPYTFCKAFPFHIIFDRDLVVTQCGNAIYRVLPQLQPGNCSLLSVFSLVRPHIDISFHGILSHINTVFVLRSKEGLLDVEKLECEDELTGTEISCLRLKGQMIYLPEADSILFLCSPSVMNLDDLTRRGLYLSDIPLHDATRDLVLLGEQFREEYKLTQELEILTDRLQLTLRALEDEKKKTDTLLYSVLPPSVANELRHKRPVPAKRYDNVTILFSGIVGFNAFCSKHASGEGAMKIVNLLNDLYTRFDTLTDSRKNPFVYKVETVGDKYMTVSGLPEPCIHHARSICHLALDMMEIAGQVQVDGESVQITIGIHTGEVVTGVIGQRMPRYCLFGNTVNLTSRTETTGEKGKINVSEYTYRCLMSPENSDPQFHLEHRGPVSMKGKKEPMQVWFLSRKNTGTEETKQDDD

Substance “human soluble guanylate cyclase α subunit catalytic domain, αGC(466–690) (from UniProt Q02108 466-690) (domain or fragment)” returned a stoichiometry N in data set [1] of 2. In data set [2], “human soluble guanylate cyclase α subunit catalytic domain, shorter construct αGC661 (residues 466–661)” had a relative abundance of the heterodimer (%) of 82.5%. “human soluble guanylate cyclase α subunit catalytic domain, truncated αGC(466–662) (from UniProt Q02108 466-662) (domain or fragment)” returned a stoichiometry N in data set [3] of 2.

Values taken from PMC3985721.
